According to the DeepSol protein solubility set:

test: soluble on expression in E. coli; label from the status in PepcDB or PDB records

| Sequence | soluble on expression in E. coli |
| --- | --- |
| MDGMTPNRLLDLAIQSLLSNESAAIQALEDIPRELFVPLFIAAFKGGHKNTLSAMVKVWPFYCLHMGSLRILEPQHELLKAIIENLPVHPAQTSAFWGPKLRILDLRQDTNCRITCPEVSTKSPSCFHSCIYSDSSITKIERQLCFINSGCKTLLPRPVELILDLFLDGSLIEKDFLILLMHKIEESLGFLHVCCRDLQIDKPCKCKCTLKFLDLQCVDQLSVDRGSLSDITSILGQMGHLESLTLSNVTFRSLRGKVFKIFLSHLQRMENLKELSFSSFRLKNHLDRVLRVLPPDLDFLYLPFCGLSYRDIKFMSQSPHVTHLKLLNLSNNLMYWDDFGPFHSVLSNLSGTLQHLEINHCHISDSAISALIPALIRCTHLRVLGFACNPITMPMLVNIMHHLTPMMELKYVIYPIPVHCYERWHFHGSLDRGKLAIKVLGLPVQAKYPRNGWSKAISSSDENIPKAQTDTIPTCSWSWSLSRLQSAVQPPRDNLGRWKDTYAERAGNAVHGAV | not soluble |
| MDGNQYEAIFLNYFRGIFPNADNLNVKCVKRMSEQQMKTTISRHGMRCTVLNGKDKISSYTVKKIVETPGKREYYGVRDIFAFKLLDMMGVGPKVHFVSNGEVGDDVGLFIVTEDD | not soluble |
| MDHGRRRLHSGSTPRGGERPAKRERISVEEQQSQEIRNLKRKLEEARQREDKYIKNEQLHHTAMRSKQQRIERMEKSMESTNRKMYATQCRLNDMENIYDDLEMESKIMADFIDHYYDSRNITEEDRDELQDKLDEEAANYRDLEDRIKEVRHRDRYMKTVETERKRTTFYRKKMLELAEQLQFEQQEVTGETPLWKLCEICAHQFSHSDEYVPRVLVCGHTLCTSCIEKLDVGDGIRCPFCRTWTNMKRIEALPKNFQILQM | not soluble |
| MDHRRLWRAANRLASDRLGSGEMCCALTSPTSTAQSPSTSFFFGSSLPFLLATIPHTLISAIAEHAILHAWYGGPHVYPDAKLPCPTATFVFKDSPLLRVDDVTSLQWDRAQAANFLVAVLRQPAVQKELRQRLWSAVQNCHRGVLRKLESLAVQKDVEGASKEAAADRLILLDQEPGMPSPPSLSLREVRDDLFSFDELLYFVRVSPSTSSTSRQQRVECESLRSTHLFRFVTSRADVAAALRDRPRSNVSDLLFCVSLRNGDTSAKASSAPVSLSTRDKLWLLLSEMVRLRYLVAYLLNFEVMLHRVRNSTRHSQRGQSTSKEVDSAGFPGNSSSEHADAQDAENAKCIAAVFRFLDIRLHTRLAVSPHHRRFLRHARVRHCERSATPEPPDRATAAHEATDADTSVRHEARRYATVQELFSAFSKALEESTTPPSQLPATVASFTSLAKSPGEGQGAAENGIEAMSKRPDHMRGRSARQNVVQARATSDGPSSLSDTDDEFLKAIVSATRQDQPPDSTVQSTPMRATHRGGVKSPSANPGELPCSRGLPGRRCLTAERSTTCLPQSRRAAEDPHPFVDVVFERKSNRSKWPFQALRARTNASNFKVRFGGSHDASSHAAVICFQLSCTREEREKAEIAPLSGKSAADLLQQYPYVTHVNGISARKVELVVRLFRSAHVLKLRLARRPPDR | soluble |
| MDICERSDEVVRYDSAQIRNGELELSSTVDDALFTDGLVATSGMLNADCRLVFGLVMFGHPLDEPMLCFTANGFELTVSIPNEDGETSSTWVIMARER | not soluble |
| MDKAIIDIYYCRQCNWMLRSTWLSQELLHTFSEEIDTISLHPDTGGRFEIFCNGQQIWERKKDGGFPEAKVLKQRVRDIIDPERDLGHSDTKLEHHHHHH | soluble |
| MDKFRVYGQSRLSGSVNISGAKNAALPILFAAILATEPVKLTNVPELKDIETTLKILRQLGVVVDRDATGAVLLDASNINHFTAPYELVKTMRASIWALAPLVARFHQGQVSLPGGCSIGARPVDLHISGLEKLGADIVLEEGYVKAQVSDRLVGTRIVIEKVSVGATLSIMMAATLAKGTTVIENAAREPEIVDTADFLNKMGAKITGAGSAHITIEGVERLTGCEHSVVPDRIETGTFLIAAAISGGCVVCQNTKADTLDAVIDKLREAGAQVDVTENSITLDMLGNRPKAVNIRTAPHPGFPTDMQAQFTLLNMVAEGTSIITETIFENRFMHIPELIRMGGKAEIEGNTAVCHGVEQLSGTEVIATDLRASISLVLAGCIATGETIVDRIYHIDRGYEHIEDKLRGLGAKIERFSGSDEA | soluble |
| MDKKANSNQNQEQKRETSDAVDRAAKAGLFNRIYVTVGQKVGIVELTKLEPRFERNIEKLTTYHNIIYNMVNAIELQVQVDPKAIVKNQVLCDPDESPWELLGGWINYMGTYHFNGPQSKILDAYSIACGKIGQKERQLQKRTRSHCIKKMRMYTADESVELNNHVAHLKDLLIAIDDSRHQLKSSRTTKEVKAKGEIYRKNIQAFNCTANEVQARLDEVPMIVPHHENELLKFSREVSIFNNSVENLLKEVVFRLGYGKRNDKPSTRAVLK | not soluble |
| MDKKIIGIDLGGTTIKFAILTTDGVVQQKWSIETNILEDGKHIVPSIIESIRHRIDLYNMKKEDFVGIGMGTPGSVDIEKGTVVGAYNLNWTTVQPVKEQIESALGIPFALDNDANVAALGERWKGAGENNPDVIFITLGTGVGGGIVAAGKLLHGVAGCAGEVGHVTVDPNGFDCTCGKRGCLETVSSATGVVRVARHLSEEFAGDSELKQAIDDGQDVSSKDVFEFAEKGDHFALMVVDRVCFYLGLATGNLGNTLNPDSVVIGGGVSAAGEFLRSRVEKYFQEFTFPQVRNSTKIKLAELGNEAGVIGAASLALQFSKEK | soluble |
| MDKNLLEAVKFDEKGLVCAIAQDAETKRILMVAWMNAEALQKTVETGFAHYYSRSRQKQWMKGEESGHTQKVRALRLDCDGDAIVMLIAQNGGIACHTGRESCFYKVWRGSAWETADAVLKDEKEIYGSTH | not soluble |
| MDKQHFKLWYFQFRGRAEPIRLLLTCAGVKFEDYQFTMDQWPTIKPTLPGGRVPLLDVTGPDGKLRRYQESMAIARLLARQFKMMGETDEEYYLIERIIGECEDLYREVYTIFRTPQGEKEAKIKEFKENNGPTLLKLVSESLESSGGKHVAGNRITLGDLFLFTTLTHVMETVPGFLEQKFPKLHEFHKSLPTSCSRLSEYLKKRAKTPF | soluble |
| MDKQVRNTTEIVRLAKQKSKKTREKVDKAISKFSIEGKVINFNSIAKEANVSKSWLYKEHDIRQRIESLRERQITANVVSKPKKSSRSEEILIKTLKRRVMELEKENKKLQNQIQKLYGDLYNKELEHHHHHH | soluble |
| MDKRIENAMNELINTEIWSTGLYLSLQVYFEDERLPILSSWLNSQAQDNMNKVYQMMNRICHDGGCVVINEMKRDTHEWTTPLNALNELLEHEQYISRQVNTFLILCWNVSMSFHSFISGLYADRIYVSTAFMELLRILAKENERKLPYF | not soluble |
| MDKSKINFNYQSRAVYSANPQTSRGRLFHETMNTLRSPFQRDRDRIIHSNAFRRLKHKTQVFIADESDHYRTRLTHSIEVSQIARTLARALYLDEDLAESIALVHDFGHTPFGHAGEDALNEAMAPYGGFDHNAQALRIVTKLEQRYANFDGLNLTWETLEGLVKHNGPLLGPYAKNKDIPIDILQYNAKQDLQLNCFAGLEAQCAAIADDIAYNAHDVDDGLRSQFLTLDQFEQVSLTAALLNDIKKEHPQLDQTRRGYTLVRRQIKTMVEDVIKQSQENLARVKPKSISDVHQAEQTIVTFSPTMAVYERELKDFLFKNLYYHDQVLNRRNAAKRIVQKLFECYYENPDVMPENWHNKTAHLTNQELARLIADFLSGMTDHYALREYQHLFDCTDNFI | not soluble |
| MDLDADFLLLHLSDSALPTGAFAHSFGFETYMDAERITNAEEFQDWLKVLLKVQLTSSDALAMRMFYATPTVSELKRLDERLFAGTPAREIREANARMGTRMAEIVAETYSVPLIVEYLELIQHRELSGHPALALALATHSAGIDVDRAIHAHLTATVSSLIQNAVRGIPLGQMAGQRVMFAMREHIGAAVKRSANLDEIDFCSGDPGLDISQMVHETQRARLFMSLEHHHHHH | not soluble |
